Experiment: soluble on expression in E. coli; label from the status in PepcDB or PDB records

Sequence | soluble on expression in E. coli
MAHHHHHHMNWCLSRRWRFRLELLSASLLSRVHIGCHAEPRNNMSTTPAKNELASVHESIQITLSKIQEDSAKRSSQEQQLISSVASAKCLAGIFSAHSPTNDEVVRALKSAGEEEQVEAECLQRYQQFVEAKKRCFTSVEADLRSVSKVLSGVLAASEKVEEPTSGDCRAEVQENQCDGELLHLLRLWRTVVCLHDLVLGSLIKRGSDGSPCELQRFSAGEERSYVRESALRNTVADTEKMLLAIRKRWRDLTEEAEAVRATAESMTPLPFSDEATLLIADEKDEPLVASINQGLHELQQSSDRLRKKKVAVDEGAAALLEKVRNLSLQTAACRCSVEAFSQRSREAADDANSLMSAKARALQELHRKAQECASEQGLLDRDVGSYKQLCALLVEWAENEKSEAERIVAAEQEYHSLVSKERAQQEKLRCLRLSIKNLESEVRDASTEKQRIVGEVQYLSKLVSNPTVVTQVLARASEECHPEREVTALHNYLRFVQKARLERHTSHE | not soluble
MSLNARARALRHSRSGTIGLIVPDVNNAVFADMFSGVQMAASGHSTDVLLGQIDAPPRGTQQLSRLVSEGRVDGVLLQRREDFDDDMLAAVLEGVPAVTINSRVPGRVGSVILDDQKGGGIATEHLITLGHSRIAFISGTAIHDTAQRRKEGYLETLASAGLRSEAAWVVDAGWEADAGSAALNTLYRGANLGKPDGPTAVVVASVNAAVGALSTALRLGLRVPEDLSIVGINTTWVSDTVYPALTTVRLPLQRLGEVAADVLMEHLGGRALTDTVVTQPTPELLVRETTAPPTREGHHHHHH | soluble
MGSSHHHHHHMAYTNTPHNWGIPRPKNETVPDAGKLYTDLLQKNGGFYLGDTKKKDIYLTFDNGYENGYTGKILDVLKEKKVPATFFVTGHYIKTQKDLLLRMKDEGHIIGNHSWSHPDFTAVNDEKLREELTSVTEEIKKVTGQKEVKYVRPPRGVFSERTLALTKEMGYYNVFWSLAFLDWKVDEQRGWQYAHNNVMTMIHPGSILLLHAISKDNAEALAKIIDDLREKGYHFKSLDDLVKSNQP | soluble
MINNDLLRRISNIFDLTDETILTTFALSQCEISAEQLTNFFKEKDDTAYQPLEDVQFASFLNGLIIAKRGPSDGPERPVEEELTNNMIFNKVKIALSLKAEEVIATLELADLSLGKYELSAFFRNVNNKHYKDCSDEVLSAFLKGLKIKSK | not soluble
MGSSHHHHHHSSGLVPRGSHMLEDPGEGQDIWDMLDKGNPFQFYLTRVSGVKPKYNSGALHIKDILSPLFGTLVSSAQFNYCFDVDWLVKQYPPEFRKKPILLVHGDKREAKAHLHAQAKPYENISLCQAKLDIAFGTHHTKMMLLLYEEGLRVVIHTSNLIHADWHQKTQGIWLSPLYPRIADGTHKSGESPTHFKANLISYLTAYNAPSLKEWIDVIHKHDLSETNVYLIGSTPGRFQGSQKDNWGHFRLKKLLKDHASSMPNAESWPVVGQFSSVGSLGADESKWLCSEFKESMLTLGKESKTPGKSSVPLYLIYPSVENVRTSLEGYPAGGSLPYSIQTAEKQNWLHSYFHKWSAETSGRSNAMPHIKTYMRPSPDFSKIAWFLVTSANLSKAAWGALEKNGTQLMIRSYELGVLFLPSALGLDSFKVKQKFFAGSQEPMATFPVPYDLPPELYGSKDRPWIWNIPYVKAPDTHGNMWVPS | soluble
ATDVIAQRKAILKQMGEATKPIAAMLKGEAKWDQAVVQKSLAAIADDSKKLPALFPADSKTGGDTAALPKIFEDKAKFDDLFAKLAAAATAAQGTIKDEASLKANIGGVLGNCKSCHDDFRAKKS | soluble
MGHHHHHHSHGSHVKVKSFEKERQTEKRVLETELVDHVLQKLRTKVTDERNGREASDNLAVQNLKGSFSNASGLFEIHGATVVPIVSVLAPEKLSASTRRRYETQVQTRLQTSLANLHQKSSEIEILAVDLPKETILQFLSLEWDADEQAFNTTVKQLLSRLPKQRYLKLVCDEIYNIKVEKKVSVLFLYSYRDDYYRILF | not soluble
PSGTIVGLYTHTDFAKKLSVDIELNYISMGSLFTMNKDTPEQRDYKVSLGYISLPVNLNYCVYKHIHVQVGIQTLALLTAVTEQKYQNVVTKGKNINDFHAIDAGPTIGCYYQFEKGLQLGVRYYRGIQNVVKENMVLYNTGIQFLLTYQF | not soluble

— the DeepSol protein solubility set
